In the supplement of paper PMC10126150:
± gives the standard deviation of the averaged measurements.

Tested on: ATP
Experiment: switch fluorescence ratio, 500 uM ATP over buffer (Cy3 cluster intensity, sum of 5 cycles each) (fold (ratio)); higher = stronger signal-on switching upon ATP binding; sequences stand for … in TCGTCGGCAGCGTCAGATGTGTATAAGAGACAGTTTTTTTTTTTTTTTTTTTTTTTTT…TC
Conditions: aptamer strand: ATP DNA aptamer (quencher-CACCTGGGGGAGTATTGCGGAGGAAGG + anchor), 100 nM annealed; ATP concentration: 500 uM
How it was run: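 Per cluster, summed Cy3 intensity from the target cycles was divided by that from the buffer cycles to give the fluorescence ratio, then averaged per switch-domain sequence. Clusters outside 100-1000 RFU were excluded. The Cy3-labelled switching-strand clusters, on a modified Illumina MiSeq flow-cell, were annealed to 100 nM quencher-labelled ATP aptamer and imaged in selection buffer, then after 15 min with 500 uM ATP at 22 °C, for five cycles with NaOH stripping and re-annealing between them.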
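Note: ATP exposure 15 min at 22 °C before imaging.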

Point of comparison: GGTTAAGGCG, switch fluorescence ratio 0.9569 ± 0.0079. Against it:
- GGTCAATTAT — higher, 1.05 ± 0.068
- GGTCACAAGA — higher, 1 ± 0.032
- GGTCACGGGT — within error, 0.981 ± 0.031
- GGTCAGGGGC — higher, 1.08 ± 0.017
- GGTCATAGAC — higher, 0.991 ± 0.026
- GGTCATTATT — within error, 0.968 ± 0.057
- GGTCATTCAA — within error, 0.982 ± 0.027
- GGTCCAACTG — within error, 0.987 ± 0.036
- GGTCCAGGGC — higher, 1.08 ± 0.04
- GGTCCCATCG — higher, 0.985 ± 0.019
- GGTCCCGGGG — higher, 1.05 ± 0.026
- GGTCCGATCG — within error, 0.9694 ± 0.0045
- GGTCCGGGGA — higher, 0.989 ± 0.013
- GGTCCGGGGG — higher, 1.02 ± 0.025
- GGTCCTTTGA — higher, 1 ± 0.029
- GGTCGAAAAC — within error, 1.06 ± 0.11
- GGTCGAGGGT — higher, 1.022 ± 0.0041
- GGTCGATTCG — within error, 0.961 ± 0.013
- GGTCGCAACC — higher, 1.04 ± 0.049
- GGTCGCTGCG — higher, 0.9956 ± 0.0069
- GGTCGGGGTC — within error, 0.966 ± 0.039
- GGTCGGGGTT — higher, 1.02 ± 0.034
- GGTCGTCAGT — within error, 0.986 ± 0.037
- GGTCGTTGCT — within error, 0.9456 ± 0.0046
- GGTCGTTTGC — higher, 1.05 ± 0.074
- GGTCTAAATT — within error, 1 ± 0.039
- GGTCTAAGGG — within error, 0.976 ± 0.036
- GGTCTAAGTG — higher, 0.9816 ± 0.0034
- GGTCTAATGG — within error, 0.998 ± 0.051
- GGTCTGGAAG — within error, 0.982 ± 0.035
- GGTCTTACCA — higher, 0.98367 ± 0.00036
- GGTCTTCCGC — higher, 1.14 ± 0.088
- GGTGAAAAAG — higher, 1.01 ± 0.011
- GGTGAAGAGT — within error, 1 ± 0.038
- GGTGACACAG — higher, 0.988 ± 0.017
- GGTGACAGGC — within error, 1.04 ± 0.08
- GGTGAGAGTT — within error, 0.956 ± 0.0087
- GGTGAGATGG — within error, 1 ± 0.069
- GGTGAGGCTG — higher, 0.996 ± 0.015
- GGTGAGGGGA — higher, 1.01 ± 0.011
- GGTGAGGTGC — higher, 0.9995 ± 0.0084
- GGTGATGGGA — within error, 0.976 ± 0.021
- GGTGCACCGA — higher, 0.9884 ± 0.0063
- GGTGCAGTGT — higher, 1.05 ± 0.017
- GGTGCCGAAT — higher, 0.998 ± 0.031
- GGTGCGGCTT — higher, 1.007 ± 0.0072
- GGTGCGGGCG — within error, 1.02 ± 0.11
- GGTGCGGGGG — within error, 0.987 ± 0.093
- GGTGCTGAAG — higher, 1.01 ± 0.021
- GGTGCTGGGG — higher, 1.01 ± 0.019
- GGTGCTTAAT — within error, 1 ± 0.037
- GGTGGAAATC — within error, 1.09 ± 0.16
- GGTGGAGATC — within error, 1 ± 0.051
- GGTGGAGCGG — within error, 1 ± 0.047
- GGTGGAGGTT — higher, 1.02 ± 0.051
- GGTGGATTGC — higher, 1.04 ± 0.02
- GGTGGCATGT — within error, 0.997 ± 0.054
- GGTGGCTAGC — within error, 1 ± 0.044
- GGTGGCTTAA — within error, 0.96 ± 0.024
- GGTGGGAAGA — higher, 1.02 ± 0.017
- GGTGGGCAAT — higher, 1.11 ± 0.045
- GGTGGGGCTG — within error, 0.968 ± 0.03
- GGTGGGGGCG — higher, 1 ± 0.024
- GGTGGGGGCT — within error, 0.973 ± 0.034
- GGTGGGGTCG — within error, 0.991 ± 0.046
- GGTGGGGTTG — within error, 1 ± 0.04
- GGTGGGTGAG — higher, 0.9745 ± 0.0094
- GGTGGGTGTA — the same, 0.957 ± 0.051
- GGTGGGTGTT — within error, 0.951 ± 0.017
- GGTGGGTTGG — within error, 0.982 ± 0.034
- GGTGGGTTTT — higher, 0.99 ± 0.013
- GGTGGTCGAC — higher, 1.03 ± 0.038
- GGTGGTGGAC — within error, 0.992 ± 0.037
- GGTGGTGGCG — within error, 1.01 ± 0.059
- GGTGGTTGGG — higher, 1.01 ± 0.038
- GGTGGTTTTT — within error, 1.03 ± 0.099
- GGTGTAATTG — higher, 1.003 ± 0.0065
- GGTGTAGATT — higher, 1.07 ± 0.04
- GGTGTATGGG — higher, 1.01 ± 0.014
- GGTGTATTGG — within error, 0.991 ± 0.029
- GGTGTCTCCC — within error, 1 ± 0.039
- GGTGTGCAAG — within error, 0.947 ± 0.04
- GGTGTGGAAA — higher, 1 ± 0.015
- GGTGTGGAAT — higher, 1.02 ± 0.033
- GGTGTGGGGT — higher, 0.986 ± 0.02
- GGTGTTAGAC — within error, 0.976 ± 0.029
- GGTGTTAGAT — within error, 0.993 ± 0.035
- GGTGTTAGGG — higher, 1.02 ± 0.027
- GGTGTTCGTG — higher, 0.985 ± 0.019
- GGTGTTCTGC — within error, 0.995 ± 0.081
- GGTGTTGCGG — within error, 0.98 ± 0.038
- GGTTAAAATC — higher, 1.02 ± 0.023
- GGTTAAACGG — higher, 1.02 ± 0.013
- GGTTAAAGGG — within error, 1.07 ± 0.15
- GGTTAACCTG — higher, 0.9959 ± 0.0062
- GGTTAAGTAG — higher, 1.004 ± 0.0075
- GGTTAAGTGC — higher, 1.01 ± 0.029
- GGTTAAGTGG — higher, 1.01 ± 0.015
- GGTTAATTAG — higher, 0.9819 ± 0.0077
